Results: article PMC6208296, “Redox regulation of pyruvate kinase M2 by cysteine oxidation and S-nitrosation” (Biochemical Journal, 2018)

Tests used:
[1] = biological target: the molecule itself; assay: cell-based or functional assay
[2] = biological target: the molecule itself; assay: crystal structure; hanging drop vapour diffusion, 10 mg/ml protein with 5 mM of each ligand, PEG 3350, sodium cacodylate pH 6, 50 mM MgCl2, 100 mM KCl; 18°C (C424A, with F-1,6-BP, oxalate and ATP) or 4°C (C358S)
[3] = biological target: the molecule itself; assay: SEC; analytical gel filtration, Superdex 200 PC 3.2/30 in PBS-CM, room temperature; 0.1 mg/ml incubated 12 h (equilibrium) without or with 1 mM DTT or 20 μM H2O2; tetramer to monomers, peak areas on a bimodal distribution

B1: M2PYK C326S (enzyme)
chain: not shown
enzymatic activity, LDH-coupled assay, without F-1,6-BP, relative to M2PYK WT [1]: ~20 % of WT activity

B2: M2PYK C424A (enzyme)
chain: not shown
notes: pyruvate kinase, M2 isoform (M2PYK), human, point mutant made on pET28a-M2PYK; Made by QuikChange on pET28a-M2PYK; no step that removes the His tag is described; source: E. coli BL21, purified (cobalt IMAC, Superdex 200 gel filtration)
binding result [2]: binds

B3: M2PYK C358S (enzyme)
chain: not shown
notes: pyruvate kinase, M2 isoform (M2PYK), human, point mutant made on pET28a-M2PYK; Made by QuikChange on pET28a-M2PYK; no step that removes the His tag is described; also called Cys358Ser; MPYK C358S; source: E. coli BL21, purified (cobalt IMAC, Superdex 200 gel filtration)
stoichiometry N [3]: 4
